Data on 6 molecules can be found in patent US20240158497A1 (published 2024).

For assay [1], the target named is T1, mouse GP130 extracellular domain expressed with a C-terminal myc-myc-hexahistidine tag (mouse, UniProt Q00560 23-617).
T1 construct: monomeric; also called mGP130-mmH; mGP130-MMH
The assay can be described thus: SPR. As for the experimental part:
(§1) Equilibrium dissociation constant (KD) for different GP130 reagents binding to purified anti-GP130 monoclonal antibodies were determined using a real-time surface plasmon resonance based Biacore 4000 biosensor. All binding studies were performed in 10 mM HEPES, 150 mM NaCl, 3 mM EDTA, and 0.05% v/v Surfactant Tween-20, pH 7.4 (HBS-ET) running buffer at 25° C. and 37° C. The Biacore sensor surface was first derivatized by amine coupling with a monoclonal mouse anti-human Fc antibody (GE, #BR-1008-39) to capture anti-GP130 monoclonal antibodies. […] Reagents tagged with “mmH” are monomeric, whereas reagents tagged with “mFc” are dimeric. Thus, for example, “hGP130-mmH” is also referred to as “monomeric human GP130,” and “hGP130-mFc” is also referred to as “dimeric human GP130.”
(§2) The association rate (k a) and dissociation rate (kd) were determined by fitting the real-time binding sensorgrams to a 1:1 binding model with mass transport limitation using Scrubber 2.0c curve-fitting software. Binding dissociation equilibrium constant (KD) and dissociative half-life (t ½) were calculated from the kinetic rates as: […]
(In SPR one partner is held on a chip, and binding of the other changes the refractive index at the surface.)

Assay [2] concerns the target T2, human GP130 extracellular domain expressed with a C-terminal myc-myc-hexahistidine tag (human, UniProt P40189 23-619).
T2 construct: monomeric; also called hGP130-mmH; hGP130-MMH
The assay can be described thus: SPR 25C, mAb captured, hGP130-MMH injected. As for the experimental part:
as §1, §2

Assay [3] addresses T3, human GP130 extracellular domain expressed with a C-terminal mouse IgG2a Fc tag (hGP130-mFc) (human).
T3 construct: also called dimeric human GP130
T3 chain: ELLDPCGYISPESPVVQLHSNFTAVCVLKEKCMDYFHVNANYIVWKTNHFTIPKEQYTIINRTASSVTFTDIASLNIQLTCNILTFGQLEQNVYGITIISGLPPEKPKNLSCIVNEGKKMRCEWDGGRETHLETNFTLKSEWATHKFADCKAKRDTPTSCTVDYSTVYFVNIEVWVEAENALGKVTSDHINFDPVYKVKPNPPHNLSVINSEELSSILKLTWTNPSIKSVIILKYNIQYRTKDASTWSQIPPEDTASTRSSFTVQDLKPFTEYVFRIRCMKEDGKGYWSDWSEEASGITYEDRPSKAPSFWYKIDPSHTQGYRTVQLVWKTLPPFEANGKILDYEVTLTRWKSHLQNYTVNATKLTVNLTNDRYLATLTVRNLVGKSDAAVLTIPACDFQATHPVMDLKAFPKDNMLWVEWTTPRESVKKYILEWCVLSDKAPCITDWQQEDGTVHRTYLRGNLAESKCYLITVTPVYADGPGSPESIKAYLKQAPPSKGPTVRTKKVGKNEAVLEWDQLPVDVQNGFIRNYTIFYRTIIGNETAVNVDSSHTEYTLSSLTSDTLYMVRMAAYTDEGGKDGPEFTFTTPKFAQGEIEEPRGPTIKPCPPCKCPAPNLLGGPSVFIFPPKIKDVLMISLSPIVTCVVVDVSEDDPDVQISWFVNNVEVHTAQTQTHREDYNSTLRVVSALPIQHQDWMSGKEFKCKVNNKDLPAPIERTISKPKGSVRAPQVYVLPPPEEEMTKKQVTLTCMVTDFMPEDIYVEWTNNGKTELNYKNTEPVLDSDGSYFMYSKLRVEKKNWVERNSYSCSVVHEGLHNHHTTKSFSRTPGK
The assay can be described thus: SPR Biacore, mAb captured via anti-hFc, 25 C. In a few lines:
(§3)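 Anti-GP130 mAbs were captured on an amine-coupled mouse anti-human Fc surface and GP130 reagents flowed over in HBS-ET (pH 7.4) at 25 °C or 37 °C. mmH-tagged reagents are monomeric, mFc-tagged dimeric. ka and kd came from 1:1 fits with mass transport limitation; KD and t½ were calculated from these rates.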

The target in assay [4] is T4, rat GP130 extracellular domain expressed with a C-terminal myc-myc-hexahistidine tag (rGP130-mmH) (rat, UniProt P40190 23-618).
T4 construct: Monomeric; the entry includes the myc-myc-His tag
T4 sequence (P40190 other isoform, or with tags, fused parts or gaps): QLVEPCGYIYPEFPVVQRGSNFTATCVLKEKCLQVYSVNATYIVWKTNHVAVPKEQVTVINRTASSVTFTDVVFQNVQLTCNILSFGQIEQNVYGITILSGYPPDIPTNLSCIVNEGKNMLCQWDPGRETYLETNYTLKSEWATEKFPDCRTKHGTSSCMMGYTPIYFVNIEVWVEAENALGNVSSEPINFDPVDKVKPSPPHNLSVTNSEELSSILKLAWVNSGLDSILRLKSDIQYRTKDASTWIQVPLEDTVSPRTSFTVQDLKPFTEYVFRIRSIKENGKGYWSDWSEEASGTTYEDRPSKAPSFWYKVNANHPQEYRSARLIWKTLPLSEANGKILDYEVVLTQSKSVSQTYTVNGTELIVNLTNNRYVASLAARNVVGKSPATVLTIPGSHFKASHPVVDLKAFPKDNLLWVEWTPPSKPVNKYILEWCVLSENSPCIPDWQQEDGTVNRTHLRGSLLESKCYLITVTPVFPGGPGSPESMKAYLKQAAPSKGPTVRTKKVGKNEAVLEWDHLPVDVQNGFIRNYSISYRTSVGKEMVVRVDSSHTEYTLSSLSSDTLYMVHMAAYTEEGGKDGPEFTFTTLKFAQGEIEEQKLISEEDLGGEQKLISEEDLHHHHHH
The assay can be described thus: SPR Biacore, mAb captured via anti-hFc, 25 C. In a few lines: as §3

Assay [5] has as its target T5, mouse GP130 extracellular domain expressed with a C-terminal myc-myc-hexahistidine tag (mGP130-mmH) (mouse, UniProt Q00560 23-617).
T5 construct: Monomeric; the entry includes the myc-myc-His tag
The assay can be described thus: SPR Biacore, mAb captured via anti-hFc, 25 C. The method, boiled down:
as §3

Assay [6] addresses T3, human GP130 extracellular domain …. The assay can be described thus: SPR Biacore, mAb captured via anti-hFc, 37 C. In a few lines: as §3
Assay [7] has as its target T4, rat GP130 extracellular domain …. The assay can be described thus: SPR Biacore, mAb captured via anti-hFc, 37 C. In a few lines: as §3
Assay [8] addresses T5, mouse GP130 extracellular domain …. The assay can be described thus: SPR Biacore, mAb captured via anti-hFc, 37 C. In a few lines: as §3

For orientation: Kd means the equilibrium constant for the complex coming apart. A low value points to higher affinity. As a reminder, the koff is the first-order rate constant of dissociation. Low values mean slow dissociation, high ones fast dissociation. Broadly, the kon is a measure of how fast the partners come together. Low values mean slow association, high ones fast association. As usually defined, the t½ is the time needed for the level to fall by half in the phase considered. Read a high t½ as slow loss.

T1 sequence (Q00560 other isoform, or with tags, fused parts or gaps): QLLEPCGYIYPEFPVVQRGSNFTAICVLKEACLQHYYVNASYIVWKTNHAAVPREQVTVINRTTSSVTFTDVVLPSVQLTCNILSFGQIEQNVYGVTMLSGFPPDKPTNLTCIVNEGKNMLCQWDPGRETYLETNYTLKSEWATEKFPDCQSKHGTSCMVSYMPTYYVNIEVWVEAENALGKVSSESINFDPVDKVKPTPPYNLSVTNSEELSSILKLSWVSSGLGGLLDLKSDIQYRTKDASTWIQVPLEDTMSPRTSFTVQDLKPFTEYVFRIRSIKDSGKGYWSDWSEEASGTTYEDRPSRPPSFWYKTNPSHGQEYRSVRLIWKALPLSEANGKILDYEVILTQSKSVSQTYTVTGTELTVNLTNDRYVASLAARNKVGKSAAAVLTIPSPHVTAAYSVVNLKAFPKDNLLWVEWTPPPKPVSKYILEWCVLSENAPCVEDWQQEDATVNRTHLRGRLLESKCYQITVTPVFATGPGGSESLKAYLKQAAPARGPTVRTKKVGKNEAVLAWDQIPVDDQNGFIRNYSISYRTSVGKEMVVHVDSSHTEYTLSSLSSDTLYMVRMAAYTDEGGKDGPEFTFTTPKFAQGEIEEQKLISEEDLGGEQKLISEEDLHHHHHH
T5 sequence (Q00560 other isoform, or with tags, fused parts or gaps): as above

B1: MAb16683 (antibody, V domains shown)
VH: QVQLVESGGGLVKPGGSLRLSCAASGFTFSDYYMTWIRQTPGKGLDWVSYISSSGTNKYNADSVKGRFTISRDNAKNSLYLQMNSLRAEDTAVYYCVRDPPWGMDVWGQGTTVTVSS
VL: not shown
On to B1, for which the binding result in assay [1] is “no binding (tested: 100 nM)”. Besides, in assay [2], the “100 nM Ag Bound (RU)” value amounted to 54 RU, the Kd is 46.7 nM, the koff stood at 0.00325 s⁻¹ and the association rate constant (kon) was 69700 M⁻¹ s⁻¹. The t½ in assay [2] turned out to be 4 min.

B2: MAb16683 (antibody, V domains shown)
VH: B1 VH
VL: not shown
notes: captured through anti-human Fc
With B2, in assay [3], the “100 nM Ag Bound (RU)” value worked out at 107 RU, the Kd came out at 1.86 nM, the koff is 0.000311 s⁻¹ and the kon stood at 167000 M⁻¹ s⁻¹. This molecule returned a t½ in assay [3] of 37 min. Further, in assay [4], the “100 nM Ag Bound (RU)” value was 0 RU and the binding result is recorded as “no binding (tested: 100 nM)”. For the same molecule, the “100 nM Ag Bound (RU)” value in assay [5] came to 0 RU. Moreover, in assay [6], the “100 nM Ag Bound (RU)” value was determined as 111 RU, the Kd is 5.8 nM, the koff stood at 0.00114 s⁻¹ and the kon came to 196000 M⁻¹ s⁻¹. For the same molecule, in assay [6], the t½ was found to be 10 min. The “100 nM Ag Bound (RU)” value in assay [7] stood at 0 RU. In addition, in assay [8], the “100 nM Ag Bound (RU)” value was 0 RU and the binding result is “no binding (tested: 100 nM)”.

B3: MAb16669 (antibody, V domains shown)
VH: EVQLVESGGGLVQPGGSLRLSCAASGFTFSSYAMNWVRQAPGKGLEWVSAISGSGDSTYYTDSVKGRFTISRDNSKNTLYLQMNTLRAEDTAVYYCAKEEIVMLVGATPGWFDPWGQGTLVTVSS
VL: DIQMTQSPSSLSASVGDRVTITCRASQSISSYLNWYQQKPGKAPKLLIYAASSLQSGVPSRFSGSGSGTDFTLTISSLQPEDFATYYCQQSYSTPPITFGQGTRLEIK
For the molecule B3, in assay [1], the binding result is listed as “no binding (tested: 100 nM)”. Besides, in assay [2], the “100 nM Ag Bound (RU)” value amounted to 17 RU, the Kd was determined as 35.4 nM, the dissociation rate constant (koff) was found to be 0.000403 s⁻¹ and the kon came out at 11400 M⁻¹ s⁻¹. In assay [2], the t½ was found to be 29 min.

B4: MAb16682 (antibody, V domains shown)
VH: EVQLVESGGGLVQPGGSLRLSCAASGFTFSTYWMNWVRQAPGKGLEWVANIKEDGSEKYYVDSVKGRFTISRDNAKNSLYLQMNSLRAEDTAVYYCAREGFGVVTYIWGQGTMVTVSS
VL: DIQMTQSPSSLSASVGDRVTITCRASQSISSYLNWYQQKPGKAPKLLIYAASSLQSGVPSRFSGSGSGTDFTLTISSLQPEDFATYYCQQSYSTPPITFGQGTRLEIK
notes: as for B2
As to B4, the “100 nM Ag Bound (RU)” value was 126 RU in assay [3]; 0 RU in assay [4]; 1 RU in assay [5]; 130 RU in assay [6]; 1 RU in assay [7]; 0 RU in assay [8]. Besides, the values for the Kd in assay [3] and in assay [6] were 2.1 nM and 8.33 nM, respectively. Besides, the koff in assay [3] is 0.000361 s⁻¹; in assay [6], 0.00196 s⁻¹. The kon turned out to be 172000 M⁻¹ s⁻¹ in assay [3] and 236000 M⁻¹ s⁻¹ in assay [6]. The t½ in assay [3] turned out to be 32 min; in assay [6] it was 6 min. For the same molecule, the binding result in assay [4] and in assay [8] was “no binding (tested: 100 nM)” each time.

B5: MAb16680 (antibody, V domains shown)
VH: QVQLQQSGPGQMKSSQTLTLTCAISGDSVSSNSAIWYWIRQSPSRGLEWLGRTKFRSKWYNDFALSMKSRITINPDTSKNQFSLHLNSVTPEDTAVYYCARYKWELYFDYWGQGTLVTVSS
VL: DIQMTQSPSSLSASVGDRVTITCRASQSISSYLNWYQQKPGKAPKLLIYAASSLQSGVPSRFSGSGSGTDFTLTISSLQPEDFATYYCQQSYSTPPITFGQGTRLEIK
As for B5, the binding result in assay [1] is on record as “no binding (tested: 100 nM)”.

B6: MAb16623 (antibody, V domains shown)
VH: EVQLVESGGGLVQPGGSLRLSCAASGLTFSSYEMNWVRQAPGKGLEWVSHISSAGSTKYYADSVKGRFTISRDNAKNSLFLQMNSLRAEDTAIYYCAGYNYAYYYFGVDVWGQGTTVTVSS
VL: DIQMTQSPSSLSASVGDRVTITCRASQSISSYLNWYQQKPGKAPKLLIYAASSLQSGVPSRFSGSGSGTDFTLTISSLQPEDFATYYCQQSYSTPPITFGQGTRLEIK
B6: the binding result in assay [1] is recorded as “no binding (tested: 100 nM)”. In assay [2], the “100 nM Ag Bound (RU)” value was determined as 77 RU, binding was characterised by a dissociation constant (Kd) of 21 nM, the koff amounted to 0.00377 s⁻¹ and the kon stood at 180000 M⁻¹ s⁻¹. Besides, in assay [2], the t½ was determined as 3 min.
